Measurements published in PMC12753105, “Evolution of a fuzzy ribonucleoprotein complex in viral assembly” (eLife, 2025).

Molecular target: the molecule itself
Test: dynamic light scattering

B1: LRS peptide N_(210-246):G214C (peptide)
peptide: MAGNCGDAALALLLLDRLNQLESKMSGKGQQQQGQTV
notes: also called N_(LRS, 210-246):G214C; G214C cysteine mutant LRS peptide
B1: binds.
